The source of these data is article PMC3035719.

One assay concerns the target MBP-DGKδSAM-H38A/V52E. Briefly: SPR.
The target of another assay is MBP-DGKδSAM-V52E (UniProt Q16760). Briefly: SPR.

On to MBP-DGKδSAM-E35G (domain or fragment), for which the Kd was 23 µM in the assay with MBP-DGKδSAM-H38A/V52E and 12.2 µM with MBP-DGKδSAM-V52E.
